From patent publication US20250179186A1 (REGENTS OF THE UNIVERSITY OF MINNESOTA, published 2025) come the findings set out here.

In test [1] the target is T1, human B7-H3 expressed by Mile Sven 1 cells stably transfected to express human B7-H3 (MS1-B7-H3) (human, UniProt Q5ZPR3 29-534).
T1 construct: whole, on cells; In the FACS sorts it was used as detergent solubilized, non-specifically biotinylated MS1-B7-H3 cell lysate; also called CD276; MS1-B7-H3 cells
T1 sequence (looked up): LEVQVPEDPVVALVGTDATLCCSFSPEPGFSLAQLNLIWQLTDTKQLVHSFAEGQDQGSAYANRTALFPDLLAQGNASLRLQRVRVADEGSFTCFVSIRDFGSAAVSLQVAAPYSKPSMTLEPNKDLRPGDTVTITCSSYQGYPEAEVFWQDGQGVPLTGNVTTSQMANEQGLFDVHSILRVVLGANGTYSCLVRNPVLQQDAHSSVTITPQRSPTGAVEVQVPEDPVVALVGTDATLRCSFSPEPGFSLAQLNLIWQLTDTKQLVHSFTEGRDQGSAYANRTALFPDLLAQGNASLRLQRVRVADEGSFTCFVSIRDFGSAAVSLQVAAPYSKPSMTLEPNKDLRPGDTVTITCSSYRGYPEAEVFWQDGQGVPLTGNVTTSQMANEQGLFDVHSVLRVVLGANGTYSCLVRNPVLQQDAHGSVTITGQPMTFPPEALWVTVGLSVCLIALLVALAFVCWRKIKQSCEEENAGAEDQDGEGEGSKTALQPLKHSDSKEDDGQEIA
As to the kind of experiment: flow cytometry titration of purified His6-tagged fusion on MS1-B7-H3 cells, anti-His6 FITC, 1:1 model. Background: Flow cytometry measures light scatter and fluorescence of single cells or particles in a stream.

Test [2] has as its target T1, human B7-H3 expressed by Mile Sven 1 …. Kind of test: flow cytometry titration of purified His6-tagged Gp2 on MS1-B7-H3 cells, anti-His6 FITC, 1:1 model.

Residue numbers refer to the chain shown, from its start.

B1: Gp21.4.4-L15-SrtA (designed binder)
chain: KFWATVQHVYSDFGFEAPVYAATLDEALQLAEVQYANSIFTVTRVRPGSGGGSGGGKGGGGTQAKPQIPKDKSKVAGYIEIPDADIKEPVYPGPATPEQLNRGVSFAEENESLDDQNISIAGHTFIDRPNYQFTNLKAAKKGSMVYFKVGNETRKYKMTSIRDVKPTDVGVLDEQKGKDKQLTLITCDDYNEKTGVWEKRKIFVATEVKHHHHHH
notes: range 60-206; also called Gp2-L15-SrtA fusion; Gp2 fusion construct
For orientation: Kd means the concentration at which binding is half-saturated. Higher therefore signals a looser complex. In test [1], B1 came in with a Kd of 1.8 nM.

B2: Gp2 1.4.3 (designed binder)
chain: KFWATVQHVYSDFGFEVPVYAATLDEALQLAEVRYANSIFMVTRVRPHHHHHH
notes: Purified from E. coli (pET-24b, NheI/BamHI cloning)
As for B2, in test [2], the Kd is 3.4 nM.

B3: Gp2 1.4.4 (designed binder)
chain: B2 chain with V17A, R34Q, M41T
notes: as for B2
B3 displayed a Kd in test [2] of 1 nM.
